Where a chain is given by its changes, count along the chain named. Values joined by “and” are separate entries in the source; they are usually repeats but may differ in a detail not shown here. Identical values can stand only once.
B1: 73P, 72A (protein, listed as Rattus norvegicus)
chain: AFDGTWKVDRNENYEKFMEKMGINVVKRKLGAHDNLKLTITQEGNKFTVKESSNFRNIDVVFELGVDFAYSAPDGTELTGTWTMEGNKLVGKFKRVDNGKELIAVREISGNELIQTYTYEGVEAKRIFKKE
modifications: PEPTIDE (1)...(131) wild-type rat intestinal fatty acid binding protein
B2: 73T, 72A (protein, listed as Rattus norvegicus)
chain: B1 chain with P73T
modifications: PEPTIDE (1)...(131) wild-type rat intestinal fatty acid binding protein
B3: 73S, 72A (protein, listed as Rattus norvegicus)
chain: B1 chain with P73S
modifications: PEPTIDE (1)...(131) wild-type rat intestinal fatty acid binding protein
B4: 78H1, 72A (protein, listed as Rattus norvegicus)
chain: B1 chain with P73A, L78H
modifications: PEPTIDE (1)...(131) wild-type rat intestinal fatty acid binding protein
B5: 82A1, 72A (protein, listed as Rattus norvegicus)
chain: B1 chain with P73A, W82A
modifications: PEPTIDE (1)...(131) wild-type rat intestinal fatty acid binding protein
B6: 74T, 72A (protein, listed as Rattus norvegicus)
chain: B1 chain with P73A, D74T
modifications: PEPTIDE (1)...(131) wild-type rat intestinal fatty acid binding protein
B7: 74C, 72A (protein, listed as Rattus norvegicus)
chain: B1 chain with P73A, D74C
modifications: PEPTIDE (1)...(131) wild-type rat intestinal fatty acid binding protein
B8: 74A, 72A (protein, listed as Rattus norvegicus)
chain: B1 chain with P73A, D74A
modifications: PEPTIDE (1)...(131) wild-type rat intestinal fatty acid binding protein
B9: 78M1, 72A (protein, listed as Rattus norvegicus)
chain: B1 chain with P73A, L78M
modifications: PEPTIDE (1)...(131) wild-type rat intestinal fatty acid binding protein
B10: 73Q, 72A (protein, listed as Rattus norvegicus)
chain: B1 chain with P73Q
modifications: PEPTIDE (1)...(131) wild-type rat intestinal fatty acid binding protein
B11: 82A, 72A (protein, listed as Rattus norvegicus)
chain: B1 chain with P73A, W82A
modifications: PEPTIDE (1)...(131) wild-type rat intestinal fatty acid binding protein
B12: 78T1, 72A (protein, listed as Rattus norvegicus)
chain: B1 chain with P73A, L78T
modifications: PEPTIDE (1)...(131) wild-type rat intestinal fatty acid binding protein
B13: 73R, 72A (protein, listed as Rattus norvegicus)
chain: B1 chain with P73R
modifications: PEPTIDE (1)...(131) wild-type rat intestinal fatty acid binding protein
B14: 74L, 72A (protein, listed as Rattus norvegicus)
chain: B1 chain with P73A, D74L
modifications: PEPTIDE (1)...(131) wild-type rat intestinal fatty acid binding protein
B15: 78W1, 72A (protein, listed as Rattus norvegicus)
chain: B1 chain with P73A, L78W
modifications: PEPTIDE (1)...(131) wild-type rat intestinal fatty acid binding protein
B16: 73V, 72A (protein, listed as Rattus norvegicus)
chain: B1 chain with P73V
modifications: PEPTIDE (1)...(131) wild-type rat intestinal fatty acid binding protein
B17: 74N, 72A (protein, listed as Rattus norvegicus)
chain: B1 chain with P73A, D74N
modifications: PEPTIDE (1)...(131) wild-type rat intestinal fatty acid binding protein
B18: 78F1, 72A (protein, listed as Rattus norvegicus)
chain: B1 chain with P73A, L78F
modifications: PEPTIDE (1)...(131) wild-type rat intestinal fatty acid binding protein
B19: 78A3, 72A (protein, listed as Rattus norvegicus)
chain: B1 chain with P73A, L78A
modifications: PEPTIDE (1)...(131) wild-type rat intestinal fatty acid binding protein
B20: 78I1, 72A (protein, listed as Rattus norvegicus)
chain: B1 chain with P73A, L78I
modifications: PEPTIDE (1)...(131) wild-type rat intestinal fatty acid binding protein
B21: 73W, 72A (protein, listed as Rattus norvegicus)
chain: B1 chain with P73W
modifications: PEPTIDE (1)...(131) wild-type rat intestinal fatty acid binding protein
B22: 74Q, 72A (protein, listed as Rattus norvegicus)
chain: B1 chain with P73A, D74Q
modifications: PEPTIDE (1)...(131) wild-type rat intestinal fatty acid binding protein
B23: 78C2, 72A (protein, listed as Rattus norvegicus)
chain: B1 chain with P73A, L78C
modifications: PEPTIDE (1)...(131) wild-type rat intestinal fatty acid binding protein

Test: Probe fluorescence ratio response to arachidonic acid relative to ADIFAB2
Assay type: binding
Settings: Arachidonic acid; response relative to ADIFAB2
Summary of the method: (§1)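 Each fatty acid's response was expressed relative to ADIFAB2, the rI-FABP-L72A probe, as ΔR/ΔRreference. ΔR is the change in the background-corrected two-wavelength intensity ratio R=Fλ1/Fλ2 from its analyte-free baseline R0. Emission was read near about 420-480 nm for unbound and about 495-580 nm for FFA-bound probe.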

Molecule	DR/DR AA
B1	0.42
B2	0.87
B3	1.01
B4	1.23
B5	0.73
B6	0.76
B7	0.83
B8	1.42
B9	1.39
B10	1.36
B11	1.55
B12	1.07
B13	0.40
B14	0.22
B15	0.49
B16	0.98
B17	1.62
B18	2.04
B19	0.48
B20	1.27
B21	1.77
B22	0.81
B23	0.15

Same assay, conditions: arachidonic acid; response relative to ADIFAB2

Molecule	DR/DR AA
B2	0.872
B14	0.222
B16	0.976

Test: Probe fluorescence ratio response to linoleic acid relative to ADIFAB2
Assay type: binding
Settings: response relative to ADIFAB2
Summary of the method: as §1

Molecule	DR/DR LA
B1	0.30
B2	0.77 and 0.768
B3	1.05
B4	1.28
B5	0.78
B6	0.82
B7	0.71
B8	1.34
B9	1.44
B10	1.39
B11	1.67
B12	1.25
B13	0.36
B14	0.30 and 0.305
B15	0.57
B16	0.40 and 0.396
B17	1.44
B18	2.00
B19	0.44
B20	1.11
B21	1.89
B22	0.87
B23	0.20

Test: Probe fluorescence ratio response to oleic acid relative to ADIFAB2
Assay type: binding
Settings: response relative to ADIFAB2
Summary of the method: as §1

Molecule	DR/DR OA
B1	0.30
B2	0.78 and 0.778
B3	0.96
B4	1.13
B5	0.80
B6	0.70
B7	0.56
B8	1.34
B9	1.44
B10	1.28
B11	1.53
B12	1.08
B13	0.27
B14	0.19 and 0.188
B15	0.53
B16	0.60 and 0.603
B17	1.52
B18	1.83
B19	0.41
B20	0.93
B21	1.66
B22	0.74
B23	0.19

Test: Probe fluorescence ratio response to linolenic acid relative to ADIFAB2
Assay type: binding
Settings: response relative to ADIFAB2
Summary of the method: as §1

Molecule	DR/DR LNA
B1	0.41
B2	0.77 and 0.765
B3	1.08
B4	1.26
B5	0.66
B6	0.78
B7	0.74
B8	1.42
B9	1.50
B10	1.31
B11	1.56
B12	1.20
B13	0.33
B14	0.40 and 0.404
B15	0.53
B16	0.50 and 0.496
B17	1.57
B18	2.05
B19	0.50
B20	1.66
B21	1.93
B22	0.86
B23	0.20

Test: Probe fluorescence ratio response to palmitic acid relative to ADIFAB2
Assay type: binding
Settings: response relative to ADIFAB2
Summary of the method: as §1

Molecule	DR/DR PA
B1	0.26
B2	0.62 and 0.621
B3	0.99
B4	0.57
B5	0.26
B6	0.37
B7	0.29
B8	1.27
B9	0.92
B10	1.19
B11	0.84
B12	0.54
B13	0.20
B14	0.36 and 0.361
B15	0.29
B16	0.48 and 0.475
B17	1.38
B18	0.91
B19	0.25
B20	0.52
B21	1.05
B22	0.43
B23	0.09

— patent US20060257938A1, “Method of screening for drugs that block ligand binding to a lipid binding protein” (priority 2005, published 2006)
